Where only a bound is given, the exact number is not on record here.

For orientation: Kd means the equilibrium constant for the complex coming apart. The term koff denotes a measure of how fast the partners let go of each other. Lower therefore signals a long-lived complex.

Test [1] concerns the target TRIM21-RING^M10E (UniProt P19474). Put plainly: NMR titration; Ube2N^C87K/K92A titrated into 100 µM 15N-labelled T21-R^M10E constructs; KD from fits of chemical shift perturbations (five peaks); 25 °C; 50 mM deuterated Tris pH 7.0, 150 mM NaCl, 1 mM deuterated DTT.
The target in test [2] is TRIM21-RING^M10E/E12R (UniProt P19474). The test is described as above.
The target in test [3] is GST-tagged TRIM21-RING (residue 1-85) (UniProt P19474). Put plainly: SPR; BIAcore T200; GST-T21-R captured on an anti-GST antibody-coated CM5 chip (GST on the reference channel); Ube2N or Ube2N~Ub injected in 1:2 dilution series from 80 µM; 30 µl/min; 20 mM Tris-HCl pH 8.0, 150 mM NaCl, 1 mM DTT; 25 °C; KD from equilibrium responses, single-site model. (In general: In SPR one partner is held on a chip, and binding of the other changes the refractive index at the surface.)

Ube2N^C87K/K92A (enzyme): the equilibrium dissociation constant (Kd) in test [1] worked out at 15 µM; in test [2] it was 57 µM.

In the case of “Ube2N (as used in the SPR experiment) (enzyme)”, in test [3], the dissociation constant (Kd) amounted to 43 µM and the koff was > 1 s⁻¹.

In test [3], “isopeptide-linked Ube2N^C87K/K92A~ubiquitin conjugate (from UniProt P0CG48 1-76) (complex)” gave a Kd of 5 µM and a dissociation rate constant (koff) of 0.15 s⁻¹.
